Measurements: paper PMC7176406

Target: tau (residues 149-395) labeled with Alexa Fluor 488 at C291 (human) (UniProt P10636)
Assay: fluorescence correlation spectroscopy

UniProt P10636, sequence (P10636 466-712 C639S): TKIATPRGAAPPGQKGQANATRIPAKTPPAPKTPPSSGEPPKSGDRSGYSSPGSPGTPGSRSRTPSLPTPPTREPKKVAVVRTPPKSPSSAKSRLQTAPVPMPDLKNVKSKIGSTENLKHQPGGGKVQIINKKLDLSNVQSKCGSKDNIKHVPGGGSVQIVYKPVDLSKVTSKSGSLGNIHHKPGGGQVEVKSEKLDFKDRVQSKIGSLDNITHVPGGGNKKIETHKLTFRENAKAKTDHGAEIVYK

Substance: tailless tubulin (subtilisin-cleaved bovine brain tubulin) (from UniProt Q6B856 1-445) (complex)
- fold weaker affinity than intact tubulin: 5 fold
- maximum increase in diffusion time of tau: 0.15 ms
